Key:
LPS-binding ELISA = assay: LPS-binding ELISA; parameters: species or system E. coli; details: for binding to immobilised LPS: 0.02-2 μg/well on LPS-coated plate (100 ng/well)
Protocol: FIG. 9 is a graphical representation showing LPS neutralization by FhHDM-1. The ability of FhHDM-1 (Δ), FhHDM-1 p1 (●) or FhHDM-1 p3 (▪) to bind to LPS was investigated by (A) incubating a range of concentrations of proteins (0.02-2 μg/well) in an LPS-coated (100 ng/well) microtitre plate. Bound peptides were detected by ELISA using rabbit anti-FhHDM-1 as a primary antibody. (B) FhHDM-1 or derived peptides (0.1 μg) were incubated in the presence of LPS (0.05-5 μg/well) and bound peptides measured as described above. Binding of peptides to the LPS-immobilized plates was expressed as a percentage of that measured for 2 μg (for panel A) or 0.1 μg (for panel B) of FhHDM-1. Data are the means±SD from three separate experiments. (C) FhHDM-1 and FhHDM-1 p3 but not FhHDM-1 p1 reduced the interaction between LPS and LBP as effectively as LL-37. LPS-coated microtitre plates were incubated with 5 μg/well of LL-37, FhHDM-1 or derived peptides for 1 h prior to the addition of 10% human sera in PBS. Interaction of LBP with LPS was measured by ELISA using an anti-LBP primary antibody and expressed as a percentage of that detected for 10% sera in the absence of added peptides. Data are the mean±SD of three separate experiments. Statistical significance was calculated using the student t-test and represent a comparison to the binding of 10% sera to immobilized LPS. (D) Binding of FITC-conjugated LPS to RAW264.7 cells was inhibited by LL-37, FhHDM-1 and peptides. […] The binding of FITC-LPS was analyzed by flow cytometry. LPS binding was expressed as a percentage of the mean fluorescence obtained for the addition of FITC-LPS to cells in the absence of peptides. […] Two hours later, sera was collected and serum levels of TNF and (F) IL-10 measured by ELISA. (G) Peritoneal macrophages were isolated, cultured unstimulated in media overnight and then levels of TNF and (H) IL-10 in the culture measured by ELISA. […]
The ability of FhHDM-1 and derived peptides to bind LPS from E. coli 0111:B4 was determined by ELISA using rabbit anti-FhHDM-1 as a primary antibody (FIG. 9A). […]

RAW macrophages = assay: ATP induced macrophage cell death (LDH release); format: cell-based, murine; details: 20 μg/mL pre-treatment 1 h, then ATP 5 mM 2 h
Protocol: FIG. 16 is a graphical representation showing that FhHDM-1 P3 prevents ATP induced cell death in RAW macrophages. RAW macrophages were pretreated with either FhHDM-1 (20 μg/mL) or FhHDM-1 p3 (20 μg/mL) for 1 h, then washed and cultured in the presence of ATP (5 mM) for 2 h. Cell death (% cytotoxicity) was quantified according to the amount of LDH released by the cells into culture media.
Raw macrophages were pre-treated with either HDM (20 μg/mL) or FhHDM-1 P3 (20 μg/mL) for 1 h, washed and then cultured in the presence of ATP (5 mM) for 2 h. The culture supernatants were collected and assayed for LDH activity with an LDH release kit. The amount of LDH release by cells treated with ATP only was used to represent 100% cytotoxicity.

[1] = test system: primary human macrophages; assay: Confocal microscopy of macrophages incubated with FhHDM-1; format: cell-based; details: 10 μg/mL for 2 h
Protocol: FIG. 10 is a photographic representation showing representative immunofluorescent images obtained by confocal microscopy at an original magnification 100× of primary human macrophages (A) and (C) incubated with recombinant FhHDM-1 (10 μg/mL for 2 h). Images (B) and (D) were experimental controls incubated with media only. Cells were stained with mouse anti-His MAb (1/2000), goat-anti-mouse Alexa-488-conjugated secondary antibody (1/1000) (green staining) and DiI plasma membrane stain (red staining). DAPI was used for identification of the cell nucleus (blue staining).

Molecule	binding to immobilised LPS (LPS-binding ELISA)	binding to free LPS in solution (competition with immobilised LPS) (LPS-binding ELISA; 0.1 μg/well with LPS 0.05-5 μg/well)	LDH release induced by ATP (cytotoxicity of ATP) (RAW macrophages)	interaction with the plasma membrane of macrophages [1]
KARDRAMAYLAKDNLGEKITEVITILLNRL (FhHDM-1 peptide 1 comprising a truncated amphipathic helix contained in FhHDM-1) [FhHDM-1 p1, peptide in which the amphipathic helix is truncated]	did not bind to LPS	–	–	–
FhHDM-1: 90-residue polypeptide from F. hepatica, Helminth Defense Molecule-1 (SEQ ID NO:24); recombinant form minus N-terminal signal peptide, expressed in E. coli (protein, listed as Fasciola hepatica) MRFIVLLCLAEVLLAAYVEARPSEESREKLRESGRKMVKALRDAVTKAYEKARDRAMAYLAKDNLGEKITEVITILLNRLTDRLEKYAGN	bound to LPS in a concentration-dependent manner	bound to free LPS in solution	no significant effect	interacts with the plasma membrane

Source: patent US11311610B2, “Immune-modulating agents and uses therefor” (UNIVERSITY OF TECHNOLOGY SYDNEY, priority 2010, dated 2022)
